Reference: US20220403041A1 (Sanofi, published 2022)

Key:
soluble CD73 dimer [1] = target: T1, soluble CD73 dimer (human, UniProt P21589 27-549, limits assumed); assay: SPR, antibody captured on chip, CD73 in flow; biphasic fit, share after 300 s binding phase of the component with ka 1.16E+05 1/Ms
T1 construct: CD73 in the flow (SPR) or in solution (BLI binning); also called soluble human CD73
T1 sequence: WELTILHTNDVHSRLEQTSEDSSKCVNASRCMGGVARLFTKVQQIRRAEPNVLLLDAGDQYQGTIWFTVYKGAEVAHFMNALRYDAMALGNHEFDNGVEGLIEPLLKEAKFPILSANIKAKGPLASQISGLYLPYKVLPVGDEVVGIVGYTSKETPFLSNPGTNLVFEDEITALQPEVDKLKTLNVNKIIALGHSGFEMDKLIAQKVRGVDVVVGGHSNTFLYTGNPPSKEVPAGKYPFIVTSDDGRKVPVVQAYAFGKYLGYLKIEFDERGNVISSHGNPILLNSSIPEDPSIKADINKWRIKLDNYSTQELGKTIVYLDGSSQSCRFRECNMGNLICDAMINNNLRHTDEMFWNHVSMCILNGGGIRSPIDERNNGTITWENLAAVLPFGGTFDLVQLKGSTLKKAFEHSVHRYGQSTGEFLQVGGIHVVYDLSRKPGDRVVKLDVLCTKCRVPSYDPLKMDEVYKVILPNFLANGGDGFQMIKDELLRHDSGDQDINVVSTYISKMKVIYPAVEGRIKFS

[2] = target: T2, human CD73 on COR-L23 lung carcinoma cells (human) (UniProt P21589)
T2 sequence: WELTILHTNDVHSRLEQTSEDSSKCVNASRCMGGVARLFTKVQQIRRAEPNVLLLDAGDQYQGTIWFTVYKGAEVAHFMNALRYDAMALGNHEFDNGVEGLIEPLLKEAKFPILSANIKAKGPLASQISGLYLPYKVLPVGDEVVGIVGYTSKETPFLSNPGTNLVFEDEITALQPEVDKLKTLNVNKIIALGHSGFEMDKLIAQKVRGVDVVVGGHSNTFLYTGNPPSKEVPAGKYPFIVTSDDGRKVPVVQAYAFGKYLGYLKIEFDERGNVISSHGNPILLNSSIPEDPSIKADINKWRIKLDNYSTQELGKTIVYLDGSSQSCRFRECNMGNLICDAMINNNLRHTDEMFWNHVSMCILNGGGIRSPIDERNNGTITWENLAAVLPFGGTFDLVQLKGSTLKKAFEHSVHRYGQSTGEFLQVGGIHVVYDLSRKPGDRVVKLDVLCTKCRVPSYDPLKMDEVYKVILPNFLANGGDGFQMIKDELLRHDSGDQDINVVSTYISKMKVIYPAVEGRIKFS

soluble CD73 dimer [3] = target: T1, soluble CD73 dimer; assay: SPR, antibody captured on chip, CD73 in flow; biphasic fit, share by T0 intercept of the component with kd 7.80E-05 1/s
soluble CD73 dimer [4] = target: T1, soluble CD73 dimer; assay: SPR, antibody captured on Protein A chip, CD73 in flow; biphasic fit, component of abundance 45%
soluble CD73 dimer [5] = target: T1, soluble CD73 dimer; assay: SPR, antibody captured on chip, CD73 in flow; biphasic fit, share by T0 intercept of the component with kd 6.00E-03 1/s
[6] = target: T2, human CD73 on COR-L23 lung carcinoma cells (human); assay: cell-based or functional assay
soluble CD73 dimer [7] = target: T1, soluble CD73 dimer; assay: SPR, antibody captured on Protein A chip, CD73 in flow; biphasic fit, component of abundance 9%
soluble CD73 dimer [8] = target: T1, soluble CD73 dimer; assay: SPR, antibody captured on Protein A chip, CD73 in flow; Langmuir ka with major component kd
soluble CD73 dimer [9] = target: T1, soluble CD73 dimer; assay: SPR, antibody captured on Protein A chip, CD73 in flow; biphasic fit, component of abundance 91%
soluble CD73 dimer [10] = target: T1, soluble CD73 dimer; assay: SPR, antibody captured on Protein A chip, CD73 in flow; biphasic fit, component of abundance 55%
soluble CD73 dimer [11] = target: T1, soluble CD73 dimer; assay: SPR, antibody captured on chip, CD73 in flow; biphasic fit, share after 300 s binding phase of the component with ka 1.19E+06 1/Ms
soluble CD73 dimer [12] = target: T1, soluble CD73 dimer; assay: SPR, antibody captured on Protein A chip, CD73 in flow; Langmuir 1:1 fit

B1: TB19/TC29 (bispecific antibody, part only; not given: TC29 arm; constant regions, V domains shown, part only)
VH: QEQLQESGPGLVKPSETLSLTCTVSGGSIRNNYYNWIRQPAGKGLEWIGRIYISGTTNSNPSLKSRVTMSIDTSKNQFSLKLSSVTAADTAIYYCAREHYVSGTSLDNWGQGTLVTVSS
VL: EIVMTQSPTTLSLSPGERATLSCRASQSVNTNYFSWYQQKPGLTPRLLIYGTSTRATGIPARFSGSGSGTDFTLTISSLQPEDFGIYYCQQDYNLPYTFGQGTYLEIK
Soluble CD73 dimer [1]
  abundance of association component (biphasic fit): 45%
[2]
  % inhibition of CD73 activity at 1 µg/ml antibody (COR-L23 cells, 4 h, LC/MS); cell TB19 x TC29: 95%
Soluble CD73 dimer [3]
  abundance of dissociation component (biphasic fit): 91%
Soluble CD73 dimer [4]
  kon: 116000 M⁻¹ s⁻¹
Soluble CD73 dimer [5]
  abundance of dissociation component (biphasic fit): 9%
[6]
  EC50 (nM) of inhibition of CD73 activity (adenosine by LC/MS): 0.264 nM
  EC50, fold lower than that of the antibody mixture: 50 fold
  Max Inhib. (projected maximal inhibition at saturating antibody): 95%
  inhibition of CD73 enzymatic activity on COR-L23 cells at 1 µg/mL: > 95%
Soluble CD73 dimer [7]
  koff: 0.006 s⁻¹
Soluble CD73 dimer [8]
  Kd: 114 pM
Soluble CD73 dimer [9]
  koff: 7.8e-05 s⁻¹
Soluble CD73 dimer [10]
  kon: 1.19e+06 M⁻¹ s⁻¹
Soluble CD73 dimer [11]
  abundance of association component (biphasic fit): 55%
Soluble CD73 dimer [12]
  koff: 8.96e-05 s⁻¹
  kon: 685000 M⁻¹ s⁻¹

B2: TB19/F1.2 (bispecific antibody, part only; not given: F1.2 arm, part only)
TB19 arm heavy chain: QEQLQESGPGLVKPSETLSLTCTVSGGSIRNNYYNWIRQPAGKGLEWIGRIYISGTTNSNPSLKSRVTMSIDTSKNQFSLKLSSVTAADTAIYYCAREHYVSGTSLDNWGQGTLVTVSS
TB19 arm light chain: EIVMTQSPTTLSLSPGERATLSCRASQSVNTNYFSWYQQKPGLTPRLLIYGTSTRATGIPARFSGSGSGTDFTLTISSLQPEDFGIYYCQQDYNLPYTFGQGTYLEIKRTVAAPSVFIFPPSDEQLKSGTASVVCLLNNFYPREAKVQWKVDNALQSGNSQESVTEQDSKDSTYSLSSTLTLSKADYEKHKVYACEVTHQGLSSPVTKSFNRGEC
[2]
  % inhibition of CD73 activity at 1 µg/ml antibody (COR-L23 cells, 4 h, LC/MS); cell TB19 x F1.2: 47%

B3: TB19/TA9 (bispecific antibody, part only; not given: TA9 arm, part only)
TB19 arm heavy chain: QEQLQESGPGLVKPSETLSLTCTVSGGSIRNNYYNWIRQPAGKGLEWIGRIYISGTTNSNPSLKSRVTMSIDTSKNQFSLKLSSVTAADTAIYYCAREHYVSGTSLDNWGQGTLVTVSS
TB19 arm light chain: EIVMTQSPTTLSLSPGERATLSCRASQSVNTNYFSWYQQKPGLTPRLLIYGTSTRATGIPARFSGSGSGTDFTLTISSLQPEDFGIYYCQQDYNLPYTFGQGTYLEIKRTVAAPSVFIFPPSDEQLKSGTASVVCLLNNFYPREAKVQWKVDNALQSGNSQESVTEQDSKDSTYSLSSTLTLSKADYEKHKVYACEVTHQGLSSPVTKSFNRGEC
[2]
  % inhibition of CD73 activity at 1 µg/ml antibody (COR-L23 cells, 4 h, LC/MS); cell TB19 x TA9: 70%

B4: TB19/AS30 (bispecific antibody, part only; not given: AS30 arm, constant regions, V domains shown, not shown: another chain or arm of the molecule; a dimerising Fc or GST; small tags and cut ends)
VH: QEQLQESGPGLVKPSETLSLTCTVSGGSIRNNYYNWIRQPAGKGLEWIGRIYISGTTNSNPSLKSRVTMSIDTSKNQFSLKLSSVTAADTAIYYCAREHYVSGTSLDNWGQGTLVTVSS
VL: EIVMTQSPTTLSLSPGERATLSCRASQSVNTNYFSWYQQKPGLTPRLLIYGTSTRATGIPARFSGSGSGTDFTLTISSLQPEDFGIYYCQQDYNLPYTFGQGTYLEIK
[2]
  % inhibition of CD73 activity at 1 µg/ml antibody (COR-L23 cells, 4 h, LC/MS); cell TB19 x AS30 (monovalent): -1%
Soluble CD73 dimer [8]
  Kd: 4180 pM
Soluble CD73 dimer [12]
  koff: 0.00069 s⁻¹
  kon: 165000 M⁻¹ s⁻¹
